These are literature values, as cited in US20040253306A1, “Sustained release formulations for nifedipine dextromethorphan, and danazol” (priority 2001, published 2004).

For the series the following is noted: oral; free vs liposomes having ceramides.

superoxide dismutase: the bioavailability was 14%.
